Our source for the Kd values is publication PMC7402034.

The assay deals with SARS-CoV-2 S protein trimer (with mutations R683A and R685A, His-tag) (SARS-CoV-2) (UniProt P0DTC2). Description: ELISA. (In general: ELISA stands for enzyme-linked immunosorbent assay.)

In general, Kd refers to the concentration at which binding is half-saturated. Read a low Kd as tighter binding. On to “Human DC-SIGN (Fc-tag) (from UniProt Q9NNX6) (Fc fusion)”, for which the equilibrium dissociation constant (Kd) turned out to be 0.192 nM.

On to “Human DC-SIGNR (Fc-tag) (from UniProt Q9H2X3) (Fc fusion)”, for which the Kd is 0.986 nM.

For the substance “Human MGL (Fc-tag) (from UniProt Q8IUN9) (Fc fusion)”, the Kd is 0.312 nM.
